# According to patent US6887705B1, “Tyrosine phosphorylated cleavage furrow-associated proteins (PSTPIPs)” (Genentech, Inc., priority 1997, dated 2005):
# T1: interaction between PTP HSCF and PSTPIP (Mus musculus, UniProt P97814)
# T1 construct: made in house; host or cells: GST fusion: E. coli DH5-alpha; PSTPIP: in vitro transcription/translation in rabbit reticulocyte lysate (Promega TnT)
# T1 sequence (P97814 1-415): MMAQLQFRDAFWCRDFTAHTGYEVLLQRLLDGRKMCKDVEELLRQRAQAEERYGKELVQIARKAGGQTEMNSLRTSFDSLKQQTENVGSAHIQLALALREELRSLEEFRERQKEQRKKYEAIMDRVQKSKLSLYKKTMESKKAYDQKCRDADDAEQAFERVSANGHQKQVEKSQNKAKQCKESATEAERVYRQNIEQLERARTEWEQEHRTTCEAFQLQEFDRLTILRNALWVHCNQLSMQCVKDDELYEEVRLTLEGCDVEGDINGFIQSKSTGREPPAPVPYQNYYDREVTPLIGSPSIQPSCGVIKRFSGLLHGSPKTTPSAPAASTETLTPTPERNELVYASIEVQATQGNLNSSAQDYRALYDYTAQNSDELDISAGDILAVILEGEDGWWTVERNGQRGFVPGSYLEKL
# T2: double mutant of PTP HSCF with both R444 and W450 mutated to alanine, HA tagged (UniProt Q61152 1-453)
# T2 construct: range 1-453; also called R+W; R444+W450
# T2 sequence (looked up): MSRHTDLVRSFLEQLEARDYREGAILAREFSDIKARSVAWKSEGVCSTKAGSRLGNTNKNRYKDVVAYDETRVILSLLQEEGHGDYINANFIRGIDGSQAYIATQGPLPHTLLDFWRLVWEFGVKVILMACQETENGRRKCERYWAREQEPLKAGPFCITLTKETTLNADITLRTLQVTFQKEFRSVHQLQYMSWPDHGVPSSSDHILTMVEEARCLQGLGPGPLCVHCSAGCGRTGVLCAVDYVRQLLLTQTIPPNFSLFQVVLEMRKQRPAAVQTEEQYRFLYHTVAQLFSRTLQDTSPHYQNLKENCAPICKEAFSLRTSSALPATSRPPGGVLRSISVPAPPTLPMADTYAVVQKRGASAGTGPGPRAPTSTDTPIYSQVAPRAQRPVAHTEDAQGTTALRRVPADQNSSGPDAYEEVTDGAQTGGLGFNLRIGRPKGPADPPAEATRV
# T3: W232A mutant of PST PIP, C-terminal FLAG (murine, UniProt P97814 1-415)
# T3 construct: In vitro translated or expressed in COS cells; also called W232A PST PIP; PST PIP with an alanine replacement mutation at tryptophan232
# T3 sequence: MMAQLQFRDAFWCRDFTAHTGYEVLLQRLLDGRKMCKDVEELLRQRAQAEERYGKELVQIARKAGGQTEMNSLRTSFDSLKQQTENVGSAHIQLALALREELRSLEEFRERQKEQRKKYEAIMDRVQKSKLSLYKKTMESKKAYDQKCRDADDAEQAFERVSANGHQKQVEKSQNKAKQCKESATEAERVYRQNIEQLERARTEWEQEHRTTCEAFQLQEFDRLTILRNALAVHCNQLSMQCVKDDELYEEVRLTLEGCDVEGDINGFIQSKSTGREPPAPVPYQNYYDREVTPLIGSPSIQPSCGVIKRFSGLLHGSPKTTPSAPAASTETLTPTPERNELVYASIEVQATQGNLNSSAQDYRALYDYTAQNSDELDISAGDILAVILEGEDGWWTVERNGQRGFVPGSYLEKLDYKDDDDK
# T4: PST PIP missing 50 amino acids from the N-terminus (delta 50), C-terminal FLAG (murine, UniProt P97814 51-415)
# T4 construct: The 5' primer (N-coil.2, Glu51) carries ATGATG before the first PSTPIP codon
# T4 sequence: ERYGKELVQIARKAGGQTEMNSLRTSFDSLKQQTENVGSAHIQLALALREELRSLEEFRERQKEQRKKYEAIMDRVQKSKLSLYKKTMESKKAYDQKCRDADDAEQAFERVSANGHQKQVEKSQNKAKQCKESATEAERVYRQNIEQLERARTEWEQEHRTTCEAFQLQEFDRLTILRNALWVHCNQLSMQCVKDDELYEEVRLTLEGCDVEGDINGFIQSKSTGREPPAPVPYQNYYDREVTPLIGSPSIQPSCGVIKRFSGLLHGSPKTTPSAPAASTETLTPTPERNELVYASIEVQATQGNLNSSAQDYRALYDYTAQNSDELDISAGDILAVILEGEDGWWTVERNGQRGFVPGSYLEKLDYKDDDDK
# T5: PST PIP missing 75 amino acids from the N-terminus (delta 75), C-terminal FLAG (murine, UniProt P97814 76-415)
# T5 construct: The 5' primer (N-coil.3, Ser76) carries ATGATG before the first PSTPIP codon
# T5 sequence: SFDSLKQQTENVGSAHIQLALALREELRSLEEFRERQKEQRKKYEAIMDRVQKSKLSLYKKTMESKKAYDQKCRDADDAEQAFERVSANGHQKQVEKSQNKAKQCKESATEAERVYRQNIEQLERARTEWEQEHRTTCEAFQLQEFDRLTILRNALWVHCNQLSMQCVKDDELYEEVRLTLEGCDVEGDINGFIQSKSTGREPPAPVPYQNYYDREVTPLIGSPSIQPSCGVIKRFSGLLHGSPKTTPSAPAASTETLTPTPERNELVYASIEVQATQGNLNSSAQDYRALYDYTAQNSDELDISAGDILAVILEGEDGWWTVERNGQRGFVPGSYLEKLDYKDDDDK
# Assays:
# [1] = molecular target: T1, interaction between PTP HSCF and PSTPIP; conditions: previous studies (Spencer et al. 1997); cited from earlier work
# [2] = molecular target: T2, double mutant of PTP HSCF with both …; experiment: anti-HA immunoprecipitation from co-transfected COS cells, blot with anti-PST PIP
# Protocol: Multiple bands precipitated with the GST PST PIP fusion protein are apparently C-terminal proteolyzed products of the PTP. Also shown are GST PST PIP precipitations (10 μg/ml) performed on a double mutant of PTP HSCF (R+W) with both residues $R444$ and $W450$ mutated to alanine (bottom panel FIG. 14 A/2). B. COS cells were co-transfected with a 10:1 ratio of plasmids encoding hemagglutinin (HA) tagged PTP HSCF with the illustrated alanine substitutions or a mutant of PTP HSCF deleted for the C-terminal 24 amino acids (PTP $HSCFD24$) and wild type PST PIP with a C-terminal FLAG epitope tag, respectively. Transfected cell lysates were immunoprecipitated with anti-HA monoclonal antibodies and the precipitates were blotted with anti-PST PIP polyclonal antibody to detect the relative amounts of PST PIP complexed with either wild type or different mutant forms of PTP HSCF. […] Equal expression of PSTPIP was determined by immunoprecipitating lysates with anti-FLAG monoclonal antibody and blotting with anti-PST PIP polyclonal antibody.
# In vitro binding analyses between various PTP HSCF and PST PIP constructs were performed as previously described (Spencer et al, (1997), supra). […] Samples were than reacted with GST fusion proteins at various concentrations, and the bound proteins were centrifuged using glutathione-sepharose beads and analyzed on SDS polyacrylamide gels. […]
# [3] = molecular target: T3, W232A mutant of PST PIP, C-terminal FLAG; experiment: GST-PTP HSCF pulldown of in vitro translated PST PIP mutant
# Protocol: In vitro binding analyses between various PTP HSCF and PST PIP constructs were performed as previously described (Spencer et al, (1997), supra). Briefly, plasmids were transcribed and translated in vitro using the TnT Rabbit Reticulocyte Lysate System (Promega). Samples were diluted in 50 mM HEPES, pH 7.2, 1% triton X-100, 10% glycerol, 100 mM NaCl, and 2 µg/ml each of leupeptin, pepstatin, aprotinin and PMSF (lysis buffer). Samples were than reacted with GST fusion proteins at various concentrations, and the bound proteins were centrifuged using glutathione-sepharose beads and analyzed on SDS polyacrylamide gels. C-terminally-derived peptide inhibition studies were performed by incubating the GST fusion protein binding reactions in the presence of 10 µg/ml of the indicated peptides. Peptides were produced by FMOC-protected amino acids as previously described (Spencer et al, (1997), supra). In vivo interactions between various forms of PTP HSCF and PST PIP were also performed as previously described (Spencer et al, (1997), supra). Briefly, COS cells were transfected with various constructs, and after 48 hours, lysates were prepared and immunoprecipitated with antibodies to either the FLAG epitope contained at the C-terminus of PST PIP or an HA epitope contained at the N-terminus of PTP HSCF. […]
# [4] = molecular target: T4, PST PIP missing 50 amino acids from the …; experiment: GST-PTP HSCF pulldown of in vitro translated PST PIP deletion mutant
# Excerpt: (§1) FIG. 9. N Terminal Truncations Result in a Loss of PST PIP Binding to PTP HSCF. Full length PST PIP (Spencer et al., *J. Cell. Biol.*, 138(4):845–860 (1997)) and forms missing 25 (delta 25), 50 (delta 50) and 75 (delta 75) amino acids from the N-terminus were transcribed and translated in vitro. The upper panel illustrates immunoprecipitation of the proteins with an antibody directed against a PST PIP C-terminal FLAG epitope. The lower panel illustrates the same proteins precipitated with a GST fusion protein containing the C-terminal 149 amino acids of PTP HSCF (Cheng et al., *Oncogene* 13:2275–2279 (1996)) including the C-terminal proline rich binding site.
# (§2) In vitro binding analyses between various PTP HSCF and PST PIP constructs were performed as previously described (Spencer et al, (1997), supra). Briefly, plasmids were transcribed and translated in vitro using the TnT Rabbit Reticulocyte Lysate System (Promega). Samples were diluted in 50 mM HEPES, pH 7.2, 1% triton X-100, 10% glycerol, 100 mM NaCl, and 2 µg/ml each of leupeptin, pepstatin, aprotinin and PMSF (lysis buffer). Samples were than reacted with GST fusion proteins at various concentrations, and the bound proteins were centrifuged using glutathione-sepharose beads and analyzed on SDS polyacrylamide gels. […]
# [5] = molecular target: T5, PST PIP missing 75 amino acids from the …; experiment: as above
# Excerpt: as §1, §2
molecule,measurement,setting,value
GFGNRCGKPKGPRDPPSEWT [PXXP-PEST],blocking of the PTP HSCF-PST PIP interaction by C-terminal peptides of related PTPs,[1],effectively block the interaction
GFGNRFSKPKGPRNPPSAW [PXXP-PEP],blocking of the PTP HSCF-PST PIP interaction by C-terminal peptides of related PTPs,[1],effectively block the interaction
"full-length PSTPIP tagged with the FLAG epitope at the C-terminus (other, In vitro transcribed/translated in rabbit reticulocyte lysate, or expressed in COS cells) MMAQLQFRDAFWCRDFTAHTGYEVLLQRLLDGRKMCKDVEELLRQRAQAEERYGKELVQIARKAGGQTEMNSLRTSFDSLKQQTENVGSAHIQLALALREELRSLEEFRERQKEQRKKYEAIMDRVQKSKLSLYKKTMESKKAYDQKCRDADDAEQAFERVSANGHQKQVEKSQNKAKQCKESATEAERVYRQNIEQLERARTEWEQEHRTTCEAFQLQEFDRLTILRNALWVHCNQLSMQCVKDDELYEEVRLTLEGCDVEGDINGFIQSKSTGREPPAPVPYQNYYDREVTPLIGSPSIQPSCGVIKRFSGLLHGSPKTTPSAPAASTETLTPTPERNELVYASIEVQATQGNLNSSAQDYRALYDYTAQNSDELDISAGDILAVILEGEDGWWTVERNGQRGFVPGSYLEKLDYKDDDDK",binding result,[2],no binding
"GST-PST-rich+CTH PTP HSCF (GST fusion of PTP HSCF amino acids 304-453) (other, UniProt Q61152 304-453, looked up, range 304-453; the methods give amino acids 304-453; also called GST-PTP HSCF; GST PTP HSCF; not shown: glutathione S-transferase encoded by pGEX-4T-2 (Pharmacia)) QNLKENCAPICKEAFSLRTSSALPATSRPPGGVLRSISVPAPPTLPMADTYAVVQKRGASAGTGPGPRAPTSTDTPIYSQVAPRAQRPVAHTEDAQGTTALRRVPADQNSSGPDAYEEVTDGAQTGGLGFNLRIGRPKGPRDPPAEWTRV",binding result,[3],no binding
same,binding result,[4],no binding
same,binding result,[5],no binding
